The numbers were not newly measured in patent US20060003347A1 (priority 2002, published 2006), which cites them from elsewhere.

What is called kcat is the maximal rate divided by the concentration of active sites.

For data set [1] the following is noted: literature.
For data set [2] the following is noted: pH 8.5.

As to acetylcholinesterase, the turnover number (kcat) in data set [1] is 14000 s⁻¹.

As for `CCOP(=O)(OCC)Oc1ccc([N+](=O)[O-])cc1` [paraoxon], in data set [2], the “Rate of base-catalysed hydrolysis” value was 2.4e-07 s⁻¹.

catalase: in data set [1], the kcat was 4e+07 s⁻¹.
